The target of test [1] is T1, cynomolgus monkey C1s (produced in house) (cynomolgus monkey, UniProt P09871 16-685 (human entry), limits assumed).
T1 construct: also called CyC1s
T1 chain: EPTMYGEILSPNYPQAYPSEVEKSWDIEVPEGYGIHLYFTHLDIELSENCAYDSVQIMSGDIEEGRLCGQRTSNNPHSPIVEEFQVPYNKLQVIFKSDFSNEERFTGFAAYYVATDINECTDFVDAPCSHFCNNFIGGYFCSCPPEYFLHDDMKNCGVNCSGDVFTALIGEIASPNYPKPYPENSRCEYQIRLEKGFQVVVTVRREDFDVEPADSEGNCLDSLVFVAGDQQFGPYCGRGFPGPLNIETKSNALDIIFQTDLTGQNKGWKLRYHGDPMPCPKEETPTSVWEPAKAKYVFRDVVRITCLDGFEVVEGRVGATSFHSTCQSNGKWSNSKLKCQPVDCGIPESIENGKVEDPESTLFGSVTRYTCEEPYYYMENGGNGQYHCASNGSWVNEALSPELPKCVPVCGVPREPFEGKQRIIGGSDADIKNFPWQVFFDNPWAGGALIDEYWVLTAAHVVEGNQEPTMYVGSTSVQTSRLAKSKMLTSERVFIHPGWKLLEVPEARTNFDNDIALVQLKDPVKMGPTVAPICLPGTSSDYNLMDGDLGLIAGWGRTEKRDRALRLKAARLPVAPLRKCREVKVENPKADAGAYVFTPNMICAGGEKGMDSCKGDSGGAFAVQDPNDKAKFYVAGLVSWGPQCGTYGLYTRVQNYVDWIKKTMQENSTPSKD
Kind of test: ELISA, plate coated with 200 ng/well CyC1s, OD450nm. The protocol:
The next morning, plates were blocked with SuperBlock T20 blocking buffer (Thermo Scientific 37536) for 1 h with gentle shaking. Then, various concentrations of anti-C1s antibodies diluted in SuperBlock T20 blocking buffer were added to the plates and incubated for 1 h with gentle shaking. Mouse IgG (Sigma-Aldrich I5381) and Human IgG1 (BioXCell BP0297) were used as negative controls. The plates were washed before incubating with HRP conjugated secondary antibodies diluted in SuperBlock T20 blocking buffer (goat anti-mouse IgG (H+L) cross-adsorbed secondary antibody HRP (Invitrogen G-21040) or goat anti-human IgG antibody, HRP conjugate (Millipore AP309P)) for 1 h with gentle shaking. At last, the plates were washed and color developed with ELISA liquid substrate (Sigma-Aldrich), followed by stopping the reaction with addition of the same volume of […] 1M H₂SO₄. Bound antibody was measured by absorbance at OD₄₅₀ₙₘ.

For test [2], the target named is T2, human C1s mutant M17 (N380H) (human, UniProt P09871 16-688).
T2 construct: The entry is the mutant itself
T2 sequence: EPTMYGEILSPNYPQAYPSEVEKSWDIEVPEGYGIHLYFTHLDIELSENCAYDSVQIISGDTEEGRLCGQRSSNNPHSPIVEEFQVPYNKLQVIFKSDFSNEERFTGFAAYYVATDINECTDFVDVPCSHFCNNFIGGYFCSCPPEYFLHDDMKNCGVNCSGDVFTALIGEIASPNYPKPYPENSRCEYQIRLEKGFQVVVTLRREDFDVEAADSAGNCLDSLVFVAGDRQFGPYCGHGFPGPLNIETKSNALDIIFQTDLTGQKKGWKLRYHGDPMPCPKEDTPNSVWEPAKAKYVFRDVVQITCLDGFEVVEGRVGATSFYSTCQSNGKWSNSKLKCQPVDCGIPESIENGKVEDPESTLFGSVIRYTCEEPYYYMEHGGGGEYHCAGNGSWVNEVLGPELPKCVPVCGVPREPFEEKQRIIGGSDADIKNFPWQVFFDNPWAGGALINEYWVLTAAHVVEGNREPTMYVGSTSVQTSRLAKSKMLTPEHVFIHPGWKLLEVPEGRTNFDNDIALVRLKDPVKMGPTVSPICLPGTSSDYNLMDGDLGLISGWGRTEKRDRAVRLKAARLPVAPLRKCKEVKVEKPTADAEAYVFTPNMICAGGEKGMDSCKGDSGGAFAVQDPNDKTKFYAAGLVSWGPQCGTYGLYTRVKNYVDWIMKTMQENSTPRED
Kind of test: ELISA, plate coated with human C1s mutant M17: N380H, OD450nm. How it is done: ELISA was carried out by first coating 96-well plates with 200 ng/well of full-length or truncated C1s proteins overnight. The next morning, plates were blocked with SuperBlock T20 blocking buffer (Thermo Scientific 37536) for 1 h with gentle shaking. Then, various concentrations of anti-C1s antibodies diluted in SuperBlock T20 blocking buffer were added to the plates and incubated for 1 h with gentle shaking. Mouse IgG (Sigma-Aldrich 15381) and human IgG1 (BioXCell BP0297) were used as negative controls. The plates were washed before incubating with HRP conjugated secondary antibodies diluted in SuperBlock T20 blocking buffer (goat anti-mouse IgG (H+L) cross-adsorbed secondary antibody HRP (Invitrogen G-21040) or goat anti-human IgG antibody, HRP conjugate (Millipore AP309P)) for 1 h with gentle shaking. At last, the plates were washed and color developed with ELISA liquid HRP substrate (Sigma-Aldrich), followed by stopping the reaction with addition of 1M H₂SO₄ in the same volume as the ELISA liquid substrate. Bound antibody was measured by absorbance at OD₄₅₀ₙₘ.
Binding of anti-C1s antibodies to mutants M1-M20 of human C1s was measured by ELISA as described in Example 4, and results are shown in FIGS. 6B-6U. All anti-C1s humanized variants including hz2-7(H1L2), hz2-8(H1L2 G80A) and hz2-8(H1L2 G80A/T82A) maintained strong binding properties to the majority (16 out of 20) of C1s mutants including M1 (FIG. 6B), M2 (FIG. 6C), M3 (FIG. 6D). M4 (FIG. 6E), M7 (FIG. 6H), M8 (FIG. 6I), M10 (FIG. 6K), M11 (FIG. 6L), M12 (FIG. 6M), M13 (FIG. 6N), M15 (FIG. 6P), M16 (FIG. 6Q), M17 (FIG. 6R), M18 (FIG. 6S), M19 (FIG. 6T) and M20 (FIG. 6U).

B1: Anti-C1s antibody 2-8 (antibody, V domains shown)
VH: EVQLQQSGAELVRPGALVKLSCKASGFNIKEYYMHWVKQRPEQGLEWIGWIDPENGDTIYDPKFQGKASITADTSSNTAYLQLSSLTSEDTAVYYCARSRLFFAYWGQGTLVTVSA
VL: DIVMTQSHKFMSTSVGDRVSFTCKASQDVRTAVDWYQQKPGQSPKLLIYSASYRYTGVPDRFTGTGSGTDFTFTISSVQAEDLAVYFCQQQYTTPYTFGGGTKLEIKT
notes: the HC/LC entries may hold it too; also called clone 2-8
B1: the EC50 (in general, the concentration that produces a half-maximal response) in test [1] is 0.012 µg/mL.

B2: Anti-C1s antibody hz2-8 (H1L2 G80A) (antibody, V domains shown)
VH: QVQLVQSGAEVKKPGASVKVSCKASGFNIKEYYMHWVRQAPEQGLEWMGWIDPENADTIYAQKFQGRVTITADTSTNTAYMELSSLRSEDTAVYYCARSRLFFAYWGQGTLVTVSS
VL: DIQMTQSPKSLSASVGDRVTITCRASQDVRTALDWYQQKPGQSPKLLIYSASYRYSGVPSRFSGSGSGTDFTLTISSLQPEDFATYYCQQQYTTPYTFGQGTKLEIKR
notes: Humanized variant with G80A in HC CDR2 (already in the entry), human IgG1 / kappa
Consider B2, for which, in test [2], the EC50 turned out to be 0.005 µg/mL.

B3: Anti-C1s antibody hz2-8 (H1L2 G80A/T82A) (antibody, V domains shown)
VH: QVQLVQSGAEVKKPGASVKVSCKASGFNIKEYYMHWVRQAPEQGLEWMGWIDPENADAIYAQKFQGRVTITADTSTNTAYMELSSLRSEDTAVYYCARSRLFFAYWGQGTLVTVSS
VL: DIQMTQSPKSLSASVGDRVTITCRASQDVRTALDWYQQKPGQSPKLLIYSASYRYSGVPSRFSGSGSGTDFTLTISSLQPEDFATYYCQQQYTTPYTFGQGTKLEIKR
notes: Humanized variant with G80A and T82A in HC CDR2 (already in the entry), human IgG1 / kappa
On to B3, for which the values for the EC50 in test [1] and in test [2] were 0.01 µg/mL and 0.008 µg/mL, respectively.

B4: Anti-C1s antibody hz2-7(H1L2) (antibody, V domains shown)
VH: EVQLLESGGGLVQPGGSLRLSCAASGFTFSNYFMNWVRQAPGKGLEWVSEIRLKFTNYATHYADSVKGRFTISRDDSKSTLYLQMNSLRAEDTAVYYCTRDYGSRNGYFDYWGQGTLVTVSS
VL: DIVMTQTPLSLPVTPGEPASISCRSSKSLLHSNGNTFLYWFLQKPGQSPQLLIYRMSNLASGVPDRFSGSGSGTDFTLKISRVEAEDVGVYYCMQHLEYPYTFGGGTKLEIKR
notes: Humanized, human IgG1 / kappa; also called hz2-7(1L2)
Take B4: the results for the half-maximal effective concentration (EC50) in test [1] and in test [2] were 0.015 µg/mL and 0.004 µg/mL, respectively.

B5: Anti-C1s antibody 2-7 (antibody, human IgG1, kappa, V domains shown)
VH: EVKLEESGGGLVPPGGSMKLSCVASGFTFSNYFMNWVRQSPEKGLEWVAEIRLKFTNYATHYAESVEGRFTISRDDSKSSVYLQMNNLRAEDTGIYYCTRDYGSRNGYFDYWGQGTTLTVSS
VL: DIVMTQAAPSVPVTPGESVSISCRSSKSLLHSNGNTFLYWFLQRPGQSPQLLIYRMSNLASGVPDRFSGSGSGTAFTLRVSRVEAEDVGIYYCMQHLEYPYTFGGGTKLEIKT
notes: the HC/LC entries may hold it too; also called clone 2-7
In test [1], B5 returned an EC50 of 0.011 µg/mL.

The values are drawn from patent US20230051715A1 (MABWELL THERAPEUTICS, published 2023).
